Literature values in paper PMC3600088.

Molecular target: Protective antigen (PA) (Bacillus anthracis) (UniProt P13423)

CMG2 (from UniProt P58335)
Kd: > 0.17 nM
